B1: DNAp21 (EMSA) (dsDNA)
DNA 1: GAACATGTCCCAACATGTTGGGCGTCGGCTGTCGGAGGAACATGTCCCAACATGTTG
DNA 2: CAACATGTTGGGACATGTTCCTCCGACAGCCGACGCCCAACATGTTGGGACATGTTC
B2: DNAmdm2 (EMSA) (dsDNA)
DNA 1: GGTCAAGTTGGGACACGTCCGGCGTCGGCTGTCGGAGGAGCTAAGTCCTGACATGTCT
DNA 2: AGACATGTCAGGACTTAGCTCCTCCGACAGCCGACGCCGGACGTGTCCCAACTTGACC
B3: DNAmdm2 (AUC) (dsDNA)
DNA 1: B2 DNA 1
DNA 2: B2 DNA 2
B4: DNAp21 (AUC) (dsDNA)
DNA 1: CTCAACATGTTGGGACATGTTCCT
DNA 2: AGGAACATGTCCCAACATGTTGAG

Assays:
p53_WT [1] = molecular target: T1, p53_WT (human, UniProt P04637 1-393); test: EMSA
p53_WT [2] = molecular target: T1, p53_WT; test: AUC
p53_WT [3] = molecular target: T1, p53_WT; test: AUC; remark: listed apart in the source

T1 sequence (P04637 whole entry): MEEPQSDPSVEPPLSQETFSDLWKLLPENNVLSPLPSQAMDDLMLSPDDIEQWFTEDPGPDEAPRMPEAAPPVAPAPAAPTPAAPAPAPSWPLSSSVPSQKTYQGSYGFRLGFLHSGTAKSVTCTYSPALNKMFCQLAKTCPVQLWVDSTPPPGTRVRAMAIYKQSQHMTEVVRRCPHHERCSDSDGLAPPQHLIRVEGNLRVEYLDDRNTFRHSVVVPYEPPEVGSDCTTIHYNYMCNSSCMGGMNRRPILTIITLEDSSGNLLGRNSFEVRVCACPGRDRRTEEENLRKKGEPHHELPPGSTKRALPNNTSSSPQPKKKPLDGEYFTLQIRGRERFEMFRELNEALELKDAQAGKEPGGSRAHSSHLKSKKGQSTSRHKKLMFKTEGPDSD

| Binder | binding result (p53_WT [1]) | other results |
| --- | --- | --- |
| B1 | binds | – |
| B2 | binds | – |
| B3 | – | binding result (p53_WT [2]): binds |
| B4 | – | binding result (p53_WT [3]): binds |

Source: publication PMC12557481
